Source: patent publication US20220333113

Assays:
[1] = target: T1, RIG-I helicase domain (aa 229-793) (Homo sapiens) (UniProt O95786); assay: filter; details: J = PPdU at every J; SB18T0.01 + 1 mM DTT, 37 C
T1 sequence: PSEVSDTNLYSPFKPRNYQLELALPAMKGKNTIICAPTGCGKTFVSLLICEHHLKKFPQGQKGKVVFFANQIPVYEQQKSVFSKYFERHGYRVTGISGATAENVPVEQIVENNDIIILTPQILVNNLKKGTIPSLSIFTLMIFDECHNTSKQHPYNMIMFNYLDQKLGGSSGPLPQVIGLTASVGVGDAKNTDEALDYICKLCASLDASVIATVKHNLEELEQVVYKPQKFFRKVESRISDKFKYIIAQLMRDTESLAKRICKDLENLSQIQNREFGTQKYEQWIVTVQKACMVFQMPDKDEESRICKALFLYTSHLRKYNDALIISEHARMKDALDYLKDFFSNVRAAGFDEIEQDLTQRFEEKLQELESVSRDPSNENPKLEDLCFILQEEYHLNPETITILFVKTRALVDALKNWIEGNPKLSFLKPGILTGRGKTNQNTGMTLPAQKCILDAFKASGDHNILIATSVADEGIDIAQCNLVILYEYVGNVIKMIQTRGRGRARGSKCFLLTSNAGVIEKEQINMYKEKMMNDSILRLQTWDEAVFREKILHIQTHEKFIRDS

[2] = target: T2, RIG-I N668A (Homo sapiens) (UniProt O95786); assay: filter; details: J = PPdU at every J; SB18T0.01 + 1 mM DTT, 37 C
T2 sequence: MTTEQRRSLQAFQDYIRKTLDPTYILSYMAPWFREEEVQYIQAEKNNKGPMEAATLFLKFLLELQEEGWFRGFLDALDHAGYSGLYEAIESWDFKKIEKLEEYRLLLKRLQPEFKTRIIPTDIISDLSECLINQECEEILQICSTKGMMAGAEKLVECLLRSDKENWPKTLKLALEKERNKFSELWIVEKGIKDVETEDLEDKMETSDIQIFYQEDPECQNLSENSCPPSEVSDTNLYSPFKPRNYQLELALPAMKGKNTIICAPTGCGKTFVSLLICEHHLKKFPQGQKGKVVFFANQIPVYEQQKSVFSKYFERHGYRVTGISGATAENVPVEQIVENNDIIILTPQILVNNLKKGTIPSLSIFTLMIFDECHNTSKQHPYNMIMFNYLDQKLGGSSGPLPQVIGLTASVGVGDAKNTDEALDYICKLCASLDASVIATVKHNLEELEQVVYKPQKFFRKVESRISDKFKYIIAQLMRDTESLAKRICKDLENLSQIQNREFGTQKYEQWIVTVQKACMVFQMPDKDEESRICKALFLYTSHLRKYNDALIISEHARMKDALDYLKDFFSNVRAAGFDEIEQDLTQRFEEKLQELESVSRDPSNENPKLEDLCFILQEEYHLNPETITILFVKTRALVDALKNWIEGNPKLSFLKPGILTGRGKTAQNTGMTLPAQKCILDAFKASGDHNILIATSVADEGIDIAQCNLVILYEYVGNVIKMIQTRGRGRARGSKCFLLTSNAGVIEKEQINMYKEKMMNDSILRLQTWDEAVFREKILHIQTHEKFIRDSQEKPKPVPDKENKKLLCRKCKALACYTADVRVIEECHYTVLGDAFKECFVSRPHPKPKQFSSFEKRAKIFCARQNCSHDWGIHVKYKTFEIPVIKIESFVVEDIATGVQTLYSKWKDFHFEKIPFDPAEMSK

[3] = target: T3, RIG-I CTD (aa 792-925) (Homo sapiens) (UniProt O95786); assay: EMSA; details: J = PPdU at every J; SB18T0.01 + 20% glycerol, 1 mM DTT, 37 C
T3 sequence: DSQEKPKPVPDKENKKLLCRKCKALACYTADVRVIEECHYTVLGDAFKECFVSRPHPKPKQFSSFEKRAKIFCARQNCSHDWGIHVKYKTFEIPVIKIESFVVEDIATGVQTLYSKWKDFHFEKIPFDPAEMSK

## ATCTCTGTGTCATGTGTTTTAATGTCAGTTTAATGATGAGG [14832-55_8]
[1]
  Kd: 10 nM
[2]
  Kd: 0.11 nM
[3]
  Kd: 0.019 nM
